Experimental data: patent US20190177416A1 (NANOMAB TECHNOLOGY, published 2019)

Legend:
[1] = molecular target: T1, human PD-L1 protein (coated antigen) (human, UniProt Q9NZQ7 19-238, limits assumed); assay: PE-ELISA on coated PD-L1
T1 construct: Construct not described; also called PD-L1 antigen; antigenic protein PD-L1

[2] = molecular target: T1, human PD-L1 protein (coated antigen); assay: ELISA, purified nanobody 10 ug/mL on coated PD-L1, anti-HA detection
Protocol: (§1) (1) Coated antigenic proteins PD-L1 and PD-L2: 0.5 μg per well (5 μg/mL, 100 μL), packaged NaHCO₃ (100 mM, pH8.2) was used as a blank control and overnight at 4° C. (2) Wash the cells three times with PBST the next day, add 200 μL of 1% BSA to block at room temperature for 2 hours. (3) Each purified nanobody was diluted to 10 μg/mL, and 100 pt of each of the purified nanobodies was incubated with the coated PD-L1, PD-L2 and the blank control group, and reacted at room temperature for 1 hour. (4) Unbound antibody was washed away with PBST, and 100 μL of mouse anti-HA tag antibody (1:2000 dilution) was added and placed at room temperature for 1 hour. (5) Unbound antibody was washed away with PBST, and anti-mouse alkaline phosphatase conjugate (1:2000 dilution) was added and placed at room temperature for 1 hour. (6) Wash the unbound antibody with PBST, add alkaline phosphatase coloring solution, and read the absorbance at 405 nm on an ELISA apparatus. The specificity of the nanobody was judged based on the absorption value.

[3] = molecular target: T1, human PD-L1 protein (coated antigen); assay: PE-ELISA, crude extract on coated PD-L1
How it was run: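 Phage clones were expressed with 1 mmol IPTG at 28° C overnight, and crude periplasmic antibody was applied to PD-L1-coated plates for 1 h at room temperature. Detection used anti-HA, then an alkaline phosphatase conjugate, read at 405 nm. A sample/control OD ratio above 3 marked a positive clone.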

[4] = molecular target: T1, human PD-L1 protein (coated antigen); assay: ELISA, purified nanobody 10 ug/mL, coated PD-L1 against coated PD-L2
Protocol: as §1

[5] = molecular target: T2, PD-L2 (coated antigenic protein) (UniProt Q9BQ51 20-220, limits assumed); assay: ELISA, purified nanobody 10 ug/mL on coated PD-L2, anti-HA detection
T2 sequence (looked up): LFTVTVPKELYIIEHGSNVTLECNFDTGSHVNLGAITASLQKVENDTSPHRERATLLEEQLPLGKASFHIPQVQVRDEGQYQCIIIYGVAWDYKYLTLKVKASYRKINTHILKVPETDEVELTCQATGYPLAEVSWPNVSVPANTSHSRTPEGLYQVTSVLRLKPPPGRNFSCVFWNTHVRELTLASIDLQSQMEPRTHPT
Protocol: as §1

[6] = molecular target: T3, PD-L1 on 293F cells transiently transfected with the PD-L1 full-length gene (UniProt Q9NZQ7 19-290, limits assumed); assay: flow cytometry, 293F cells transiently transfected with PD-L1 or PD-L2
T3 construct: whole, on cells; also called PD-L1 transient cells
Protocol: In addition, the specificity of the PD-L1 nanobody was detected by flow cytometry. The PD-L1 full-length gene and the PD-L2 full-length gene were transiently transfected in a conventional 293F cell, and a nano-antibody (SEQ ID NO.: 1) of PD-L1 was selected for incubation for flow cytometry.

T1 sequence (Q9NZQ7 19-238 limits assumed): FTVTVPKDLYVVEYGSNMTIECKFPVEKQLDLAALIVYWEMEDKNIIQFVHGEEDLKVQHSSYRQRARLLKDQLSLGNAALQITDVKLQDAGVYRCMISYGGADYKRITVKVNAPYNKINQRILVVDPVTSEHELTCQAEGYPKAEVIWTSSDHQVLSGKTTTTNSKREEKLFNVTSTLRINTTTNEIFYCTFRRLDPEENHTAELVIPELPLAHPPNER
T3 sequence (Q9NZQ7 19-290 limits assumed): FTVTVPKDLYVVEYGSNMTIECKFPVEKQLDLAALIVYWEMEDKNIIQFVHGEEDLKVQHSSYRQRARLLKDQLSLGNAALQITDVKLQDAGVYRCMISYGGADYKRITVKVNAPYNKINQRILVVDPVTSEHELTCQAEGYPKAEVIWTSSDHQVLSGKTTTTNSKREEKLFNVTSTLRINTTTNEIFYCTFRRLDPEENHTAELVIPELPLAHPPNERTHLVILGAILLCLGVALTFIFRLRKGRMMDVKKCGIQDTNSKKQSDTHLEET

B1: SEQ ID NO 147 (VHH)
VHH: QVQLQESGGGSVQAGGSLRLSCAASGYTSRPNFMVWFRQAPGKEREAVAGIYTVTGGTLYSDPVKGRFTISQDKAKNTVYLQMNSLNPEDTAMYYCAVKWYGGSWSDAATFRTWGRGTQVTVSS
notes: pMECS-expressed; also called VHH numbered 147
Question: Does B1 bind [1]?
Answer: binds

B2: SEQ ID NO 144 (VHH)
VHH: QVQLQESGGGSVQAGQSLRLSCTASGYTDSRYCMGWFRQAPGKERERVTTIHTGTGITYYADSVKGRFSISQDNAQNTMYLQMNSLEPEDTAMYYCATTDYVYSASASWCNGYGVFNNWGQGTQVTVSS
notes: pMECS-expressed; also called VHH numbered 144
Question: Does B2 bind [1]?
Answer: binds

B3: SEQ ID NO 12 (VHH)
VHH: QVQLQESGGGSVQAGGSLRLSCAASGYTRSSHCMVWFRQAPGKEREGVALIYTGSGSTYYADSVKGRFTISQDNAKKTLYLQMNSLKPEDTAMYYCAAGTSSSSCPGLLGPPRYYNWGQGTQVTVSS
notes: pMECS-expressed; also called anti-PD-L1 nanobody No. 12; VHH numbered 12
Question: With B3 as the binder, how does the “ELISA absorbance (A405 nm)” value [2] read?
Answer: 2.99 A405 nm

Question: And the “OD ratio (experimental group (A405 nm)/control group (A405 nm))” value [3]?
Answer: > 20

Question: And the “OD ratio (PD-L1/PD-L2)” value [4]?
Answer: 23.9

Question: What about the “ELISA absorbance (A405 nm)” value [5] of the same binder?
Answer: 0.125 A405 nm

B4: SEQ ID NO 149 (VHH)
VHH: QVQLQESGGGLVQAGGSLRLSCTASGFTFDDYSMGWFRQAPGKEREGISCIDWSGGRTNYGDSVKGRFTISRDNAKNTLYLQMNSLKPEDTAMYYCAANSAYSSCSLSTTHYKYWGQGTQVTVSS
notes: pMECS-expressed; also called VHH numbered 149
Question: Does B4 bind [1]?
Answer: binds

B5: SEQ ID NO 148 (VHH)
VHH: QVQLQESGGGSVQAGGSLRLSCAASGYSYNIDYMAWFRQAPGKEREGVAAIYTGSRRTYYSDSVKGRFAISQDNADNTVYLQMNALKPEDTAMYFCAALVSRPGRSWDKNEYRYWGQGTQVTVSS
notes: pMECS-expressed; also called VHH numbered 148
Question: Does B5 bind [1]?
Answer: binds

B6: SEQ ID NO 1 (VHH)
VHH: QVQLQESGGGSVQTGGSLRLSCTASTSIYSNNYMAWFSQSPGKGREGVAAVYMDDGRPYYADSVKGRFTISLDSAKNTMYLQMNSLKPEDTAMYYCAAAPGPLSRNYWYTSANYDYWGQGTQVTVSS
notes: pMECS-expressed; also called anti-PD-L1 nanobody No. 1; VHH numbered 1
Question: With B6 as the binder, how does the “fold difference (PD-L1 transient cells against PD-L2 transient cells)” value [6] read?
Answer: ≥ 550 times

Question: What about the “ELISA absorbance (A405 nm)” value [2] of the same binder?
Answer: 3.8 A405 nm

Question: And the “OD ratio (experimental group (A405 nm)/control group (A405 nm))” value [3]?
Answer: > 20

Question: What about the “OD ratio (PD-L1/PD-L2)” value [4] of the same binder?
Answer: 32.2

Question: What about the “ELISA absorbance (A405 nm)” value [5] of the same binder?
Answer: 0.118 A405 nm

B7: SEQ ID NO 5 (VHH)
VHH: QVQLQESGGGSVQTGGSLRLSCAASTSIYSNNYMAWFSQAPGKGREGVAAVYIDDGRPYYADSVKGRFTISLDSAKNTVYLQMNGLKPEDTAMYYCAAAPGPLSRNYWYTSANYDYWGQGTQVTVSS
notes: pMECS-expressed; also called anti-PD-L1 nanobody No. 5; VHH numbered 5
Question: What does the source list for B7?
Answer: ELISA absorbance (A405 nm) [2]: 3.38 A405 nm; OD ratio (experimental group (A405 nm)/control group (A405 nm)) [3]: > 20; OD ratio (PD-L1/PD-L2) [4]: 26.4; ELISA absorbance (A405 nm) [5]: 0.128 A405 nm

B8: SEQ ID NO 2 (VHH)
VHH: QVQLQESGGGSVQAGGSLRLSCAVSRYSASNNVIKWMGWFRQAPGKEREGVAALYTSGGNTYYADSVKGRFTISRDYSENTVSLQMNNLKPEDTGMYYCATTVGTVLAGPLSARKYNYWGQGTQVTVSS
notes: pMECS-expressed; also called anti-PD-L1 nanobody No. 2; VHH numbered 2
Question: With B8 as the binder, how does the “ELISA absorbance (A405 nm)” value [2] read?
Answer: 3.63 A405 nm

Question: What about the “OD ratio (experimental group (A405 nm)/control group (A405 nm))” value [3] of the same binder?
Answer: > 20

Question: What about the “OD ratio (PD-L1/PD-L2)” value [4] of the same binder?
Answer: 31.8

Question: What about the “ELISA absorbance (A405 nm)” value [5] of the same binder?
Answer: 0.114 A405 nm

B9: SEQ ID NO 142 (VHH)
VHH: QVQLQESGGGSVQTGGSLRLSCAVSRYSASNNVIKWMGWFRQAPGKEREGVAALYTSGGNTYYADSVKGRFTISRDYSENTVSLQMNNLKPEDTGMYYCAATVGTVLAGPLSARKYNYWGQGTQVTVSS
notes: pMECS-expressed; also called VHH numbered 142
Question: Does B9 bind [1]?
Answer: binds

B10: SEQ ID NO 8 (VHH)
VHH: QVQLQESGGDSVQAGGSLRLACKVPGFTSNTCAMAWFRQAPGKEREFVSSISTGGTTGYAESAKGRFTLSKDEAKDTVYLQMNSLKPEDTAMYFCKSYACRTCIGRYCRTAPDAWGQGTQVTVSS
notes: pMECS-expressed; also called anti-PD-L1 nanobody No. 8; VHH numbered 8
Question: How did the “ELISA absorbance (A405 nm)” value [2] turn out when B10 was run?
Answer: 3.37 A405 nm

Question: And the “OD ratio (experimental group (A405 nm)/control group (A405 nm))” value [3]?
Answer: > 20

Question: What about the “OD ratio (PD-L1/PD-L2)” value [4] of the same binder?
Answer: 25.3

Question: And the “ELISA absorbance (A405 nm)” value [5]?
Answer: 0.133 A405 nm

B11: SEQ ID NO 150 (VHH)
VHH: QVQLQESGGGLVQPGGSLRLSCAASGFTFSAYGMSWVRQAPGKGFEWVSTINSGGGTTFYADSVKGRFTISRDNAKNTLYLQLNSLRTEDTAMYYCRRCADIYCSLSGGWTGQGTQVTVSS
notes: pMECS-expressed; also called VHH numbered 150
Question: Does B11 bind [1]?
Answer: binds

B12: SEQ ID NO 141 (VHH)
VHH: QVQLQESGGGSVQAGGSLRLSCTAPGFTSNTCAMAWFRQAPGKEREFVSSMSTVGSTRFADSVKGRFTISKDEAKDTVYLQMNSLKPEDTAMYFCKTYACRECTGRYCRTAPDAWGQGTQVTVSS
notes: pMECS-expressed; also called VHH numbered 141
Question: Does B12 bind [1]?
Answer: binds

B13: SEQ ID NO 143 (VHH)
VHH: QVQLQESGGGSVQAGGSLRLSCTAPGFTSNTCAMAWYRQAPGKEREFVSSISTVRTTAYADSVKGRFTISKDEAKATVYLQMNSLKPEDTAMYFCKSYACRDCIGRYCRTAPDAWGQGTQVTVSS
notes: pMECS-expressed; also called VHH numbered 143
Question: Does B13 bind [1]?
Answer: binds

B14: SEQ ID NO 9 (VHH)
VHH: QVQLQESGGGSVQAGGSLRLSCAASGYTYSNDGMGWFRQIPGKEREGVAAISPTGRRTEYADSVQGRFTISRDNAKNMLSLQMNSLKPEDTGMYYCAREGSGSFSLQNSAVRSWGQGTQVTVSS
notes: pMECS-expressed; also called anti-PD-L1 nanobody No. 9; VHH numbered 9
Question: How did the “ELISA absorbance (A405 nm)” value [2] turn out when B14 was run?
Answer: 3.56 A405 nm

Question: And the “OD ratio (experimental group (A405 nm)/control group (A405 nm))” value [3]?
Answer: > 20

Question: What about the “OD ratio (PD-L1/PD-L2)” value [4] of the same binder?
Answer: 27.2

Question: And the “ELISA absorbance (A405 nm)” value [5]?
Answer: 0.131 A405 nm

B15: SEQ ID NO 139 (VHH)
VHH: QVQLQESGGGSVQAGGSLRLSCVASGYTNCRYDMSWYRQAPGKEREFVSSIDSEGVARHADSVKGRFGISQDNAKSTLYLQMNSLKPEDTAVYYCKTDYITCRFGSWSDSTWGQGTQVTVSS
notes: pMECS-expressed; also called VHH numbered 139
Question: Does B15 bind [1]?
Answer: binds

B16: SEQ ID NO 140 (VHH)
VHH: QVQLQESGGGSVQAGGSLRLSCVASGYTNCRYDMSWYRQAPGKEREFVSSIDSEGVARHADSVKGRFGISQDNAKSTLYLQMNSLKPEDTAMYYCKMDYIRCRFGSWSESTWGQGTQVTVSS
notes: pMECS-expressed; also called VHH numbered 140
Question: Does B16 bind [1]?
Answer: binds

B17: SEQ ID NO 6 (VHH)
VHH: QVQLQESGGGSVQAGETLRLSCTASGDTFDASGVGWFRQVSGNECDLVSSINRDGTTYYAPSVAGRFTMSQNNAKNTVYLQMNSLKPDDTAVYYCATDPAVGIVVRSTCRGPFGYWGQGTQVTVSS
notes: pMECS-expressed; also called anti-PD-L1 nanobody No. 6; VHH numbered 6
Question: What does the source list for B17?
Answer: ELISA absorbance (A405 nm) [2]: 3.44 A405 nm; OD ratio (experimental group (A405 nm)/control group (A405 nm)) [3]: > 20; OD ratio (PD-L1/PD-L2) [4]: 29.9; ELISA absorbance (A405 nm) [5]: 0.115 A405 nm

B18: SEQ ID NO 11 (VHH)
VHH: QVQLQESGGGSVQAGETLRLSCTASGDTFDDSGVGWFRQVSGNECDLVSSINRDGTTYYAPSVAGRFTISQNNAKNTVYLQMNSLKPDDTAVYYCATVPAVGIVVRITCRGPFGYWGQGTQVTVSS
notes: pMECS-expressed; also called anti-PD-L1 nanobody No. 11; VHH numbered 11
Question: With B18 as the binder, how does the “ELISA absorbance (A405 nm)” value [2] read?
Answer: 2.9 A405 nm

Question: What about the “OD ratio (experimental group (A405 nm)/control group (A405 nm))” value [3] of the same binder?
Answer: > 20

Question: What about the “OD ratio (PD-L1/PD-L2)” value [4] of the same binder?
Answer: 25

Question: And the “ELISA absorbance (A405 nm)” value [5]?
Answer: 0.116 A405 nm
